Experimental data: US20070065425A1 (LABORATOIRE FRANCAIS DU FRACTIONNEMENT ET DES …, published 2007)

T1: Factor VIII fragment 379-546Mut (R484A, Y487A, R489A, P492A), tagged (UniProt P00451 398-565, labeled in vitro with L-(35S) methionine)
T1 construct: Produced in rabbit reticulocyte lysate
T1 sequence: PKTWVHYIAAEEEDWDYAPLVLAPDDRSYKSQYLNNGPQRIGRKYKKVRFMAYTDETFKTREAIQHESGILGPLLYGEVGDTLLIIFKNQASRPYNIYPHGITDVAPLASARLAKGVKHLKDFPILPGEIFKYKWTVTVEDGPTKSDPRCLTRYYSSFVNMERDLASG

B1: BOIIB2 antibody (antibody, human IgG4, kappa, V domains shown)
VH: QVQLQESGPGLVKPSETLSLTCTVSGDSISDYYWSWIRQPPGKGLEWIGYFFYSGGSNYNPSLKSRVTMSVDTSKNQFSLKLGSVTAADTAVYYCARSQLRYYLDVWGQGTTVTVSS
VL: EIVLTQSPGTLSLSPGERATLSCRASQSVDSNYLAWYQQKPGQAPRVVIYGASNRATGIPDRFSGSGSGTEFTLTISRLDPEDFAVYYCQQYGSFFGQGTRLEIKR
notes: Human monoclonal IgG4 from a haemophilia A patient; also called anti-A2 antibody; FVIII anti-domain A2 BOIIB2 human antibody
B2: 30D1 monoclonal anti-idiotypic antibody (antibody, mouse IgG1, V domains shown)
VH: EVQLQQSGPELVKPGASMKISCKASGYSFTDYTMNWVKQSHGKNLEWIGLINPYNVISSYNQKFKGKATLTVDKSSSTAYMELLSLTSEDSAVYYCARKGYGSSMFAYWGQGTLVTVSA
VL: DIVMTQSHKFMSTSVGGRVSITCKASQDVTTAVAWYQQKPGQSPKLLIYSASYRYTGVPDRFTGSGSGTDFTFTFSSVQAEDLAVYYCQQHYSIPWTFGGGTKLEIKR
notes: Tested as hybridoma supernatant and Protein G purified (SPR); also called 30D1 anti-Id; 30DA1

Columns and labels:
[1] = target: T1, Factor VIII fragment 379-546Mut (R484A, …); experiment: immunoprecipitation of 35S-labelled fragment by BOIIB2 on Protein A Sepharose
Description: The immunoprecipitation of the transcribed genes is carried out as follows. Sample dilutions containing the specific antibodies are mixed with 40 up of Protein A Sepharose (Pharmacia) in 500 up of a suitable buffer, and the mixture is gently stirred for 1 hour at 4° C. The non-fixed antibodies are eliminated by means of a succession of centrifugations and washings. The complex antibody-Protein A Sepharose is resuspended in 300 up of buffer supplemented with 3 up of polypeptides of Factor VIII labeled in vitro with methionin L-(³⁵S), in order to incubate at 4° C. for 2 hours. The complexes antigens/antibodies are eluted from the beads by boiling for 3 minutes in 30 up of denaturating buffer and the radioactivity is counted. A second aliquot is analyzed by SDS-PAGE and visualized by autoradiography.
The fragments were immunoprecipitated by the human BOIIB2 antibody bound to Protein-A Sepharose. After washing, the complex was eluted and the radioactivity measured (in CPM) by scintillation and charged on SDS-PAGE, followed by an autoradiography. […] The anti-c-myc 9E10 antibody and the human plasma were used as positive and negative controls, respectively.

BOIIB2 antibody = target: B1; experiment: SPR (BIAcore), BOIIB2 immobilized on CM5, 30D1 as analyte
Description: The kinetics of fixation of the 30D1 anti-idiotypic antibody to the BOIIB2 inhibitor antibody was assessed by the method <<Surface plasmon resonance Biacore>> using the Pharmacia Biosensor BIAcore (Pharmacia Biosensor AB, Uppsala, Sweden). The BOIIB2 antibodies were immobilized on an activated surface of a probe CM5. The 30D1 anti-idiotypic antibodies were infused in several concentrations of immobilized BOIIB2 on the surface of the probe.

Q: Does B1 bind [1]?
A: Result: no binding

Q: How did the Kd (BOIIB2 antibody) turn out when B2 was run?
A: The Kd was at most 0.17 nM.

Q: What about the koff (BOIIB2 antibody) of the same binder?
A: Its koff is at most 1e-05 s⁻¹.

Q: And the kon (BOIIB2 antibody)?
A: The kon was 60000 M⁻¹ s⁻¹.
